Assay results from US20240124553A1.

Legend:
[1] = biological target: Sindbis virus strain TR339 (virions; also structural proteins on infected Vero cells) (Sindbis virus); assay: cell-based or functional assay
[2] = biological target: Mayaro virus (MAYV) structural proteins on infected cells (Mayaro virus); assay: flow cytometry, surface staining of MAYV-infected Vero cells with serial dilutions, % binding to infected cells
[3] = biological target: Sindbis virus strain TR339 (virions; also structural proteins on infected Vero cells) (Sindbis virus)

Q: With “Du-D1-Mo-D2 MXRA8-Fc (chimeric duck D1 - mouse D2 MXRA8, duck stalk) (from UniProt Q9DBV4 23-65; Q9DBV4 195-293) (Fc fusion)” as the substance, how does the neutralization of SINV TR339 infection, EC50 against that of duck MXRA8-Fc [1] read?
A: 3 fold

Q: What about the EC50 (read off the curve) [2] of the same substance?
A: 0.04 µg/mL

Q: What about the neutralisation of SINV-GFP infection; IC50 (read off the curve) [3] of the same substance?
A: 0.3 µg/mL
